For orientation: koff means a measure of how fast the partners let go of each other. High values mean fast dissociation, low ones slow dissociation. What is called kon is the second-order rate constant of association. A higher kon goes with fast association. For orientation: Kd means the concentration at which binding is half-saturated.

Numbering of substitutions follows the chain as printed. Some results are limits rather than exact numbers.

The values below come from patent publication US20240018252A1 (Pfizer, published 2024).

Experiment [1] deals with T1, human CD3 (huCD3ed) (human, UniProt P07766 23-126; P04234 22-105).
T1 construct: Soluble analyte in SPR; The delta chain is inferred from the label 'ed'; also called hCD3ed; hCD3
T1 sequence (P07766 23-126, chain 1 of 2): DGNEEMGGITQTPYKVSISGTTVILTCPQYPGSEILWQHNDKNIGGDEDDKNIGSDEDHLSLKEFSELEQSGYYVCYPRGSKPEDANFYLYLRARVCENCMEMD
T1 sequence (P04234 22-105, chain 2 of 2): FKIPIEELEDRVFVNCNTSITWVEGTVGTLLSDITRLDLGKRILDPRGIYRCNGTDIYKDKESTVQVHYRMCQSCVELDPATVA
In words: SPR (ProteOn XPR36), IgG amine-coupled on chip, huCD3ed as analyte, 37 C. On the procedure: (§1) All experiments were performed on a Bio-Rad Proteon XPR36 surface Plasmon resonance biosensor (Bio-Rad, Hercules, CA). […] The analysis temperature for the immobilization was 25° C. and the running buffer was HBS-T+(10 mM HEPES, 150 mM NaCl, 0.05% Tween-20, pH 7.4). Channels were activated in the analyte (horizontal) direction by injecting a mixture of 1 mM ECD and 0.25 mM NHS for 3 minutes at a flow rate of 30 μL/min. IgGs were immobilized on the activated spots by injecting them in the ligand (vertical) direction at […] in 10 mM Acetate pH 4.5 buffer for 1.5 minutes at […]. The activated surfaces were blocked by injecting 1M ethanolamine, pH 8.5 in the analyte direction for 3 minutes at 30 μL/min.
(§2) The analysis temperature for the hCD3 binding analysis was 37° C. or 25° C. in a running buffer of HBS-T+, supplemented with 1 mg/mL BSA. A kinetic titration method was employed for the interaction analysis as described in Abdiche, et al. The hCD3 (human CD3) analyte was injected in the analyte direction using a series of injections from low to high concentration. The concentrations used were 0.08 nM, 0.4 nM, 2 nM, 10 nM and 50 nM (a 5-membered series, with a 5-fold dilution factor and top concentration of 50 nM). The association time for a given analyte dilution was two minutes. Immediately after the 50 nM hCD3 injection, dissociation was monitored for 2 hours.
(§3) The sensorgrams were double-referenced and fit to a 1:1 Langmuir with mass transport kinetic titration model in BIAevaluation Software version 4.1.1 (GE Lifesciences, Piscataway, NJ).

The target of experiment [2] is T1, human CD3 (huCD3ed). In words: SPR (ProteOn XPR36), IgG on chip, huCD3ed analyte, 37 C; column head says nM but kd/ka gives this number in M. The protocol: as §1, §2, §3
Experiment [3] deals with T2, human BCMA (human, UniProt Q02223 1-54).
T2 construct: also called huBCMA; hBCMA
T2 sequence: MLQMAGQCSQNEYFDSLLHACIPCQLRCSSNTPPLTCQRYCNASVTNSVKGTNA
In words: SPR, immobilised IgG, 25° C.

Experiment [4] concerns the target T3, cyBCMA (cynomolgus, UniProt A0A2K5UD97 1-53).
T3 construct: Soluble analyte in SPR; construct not described; also called cyno BCMA
In words: SPR, immobilised IgG, 25° C. (In SPR one partner is held on a chip, and binding of the other changes the refractive index at the surface.)

The target in experiment [5] is T2, human BCMA. Nature of the experiment: SPR, immobilised IgG, 37° C.
For experiment [6], the target named is T3, cyBCMA. Nature of the experiment: SPR, immobilised IgG, 37° C.
For experiment [7], the target named is T1, human CD3 (huCD3ed). Nature of the experiment: Biacore SPR, antibody as ligand, hCD3ed 80 nM-0.64 nM, kinetic fit.

T3 sequence (A0A2K5UD97 entry or part of it): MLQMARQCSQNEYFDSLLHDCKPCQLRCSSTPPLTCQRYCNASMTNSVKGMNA

B1: h2B4-VH-wt VL_TK (antibody, V domains shown)
VH: EVQLVESGGGLVQPGGSLRLSCAASGFTFSDYYMTWVRQAPGKGLEWVAFIRNRARGYTSDHNASVKGRFTISRDNAKNSLYLQMNSLRAEDTAVYYCARDRPSYYVLDYWGQGTTVTVSS
VL: DIVMTQSPDSLAVSLGERATINCKSSQSLFNVRSRKNYLAWYQQKPGQPPKLLISWASTRESGVPDRFSGSGSGTDFTLTISSLQAEDVAVYYCKQSYDLFTFGSGTKLEIK
notes: Anti-CD3; also called h2B4-TK
B1: in experiment [1], the “T½” value turned out to be 0.83 min, the koff came out at 0.014 s⁻¹ and the kon was 380000 M⁻¹ s⁻¹. The molecule also showed a Kd in experiment [2] of 38 nM.

B2: h2B4-VH-yaps VL_TK (antibody, V domains shown)
VH: B1 VH with H62Y, N63A, A64P
VL: B1 VL
notes: Anti-CD3
On to B2, for which, in experiment [1], the “T½” value worked out at 0.5 min, the koff was 0.023 s⁻¹ and the on-rate (kon) turned out to be 250000 M⁻¹ s⁻¹. The affinity in experiment [2], expressed as Kd, was 92 nM.

B3: h2B4-VH-yaes VL_TK (antibody, V domains shown)
VH: B1 VH with H62Y, N63A, A64E
VL: B1 VL
notes: Anti-CD3; also called h2B4-yaesTK
For the molecule B3, in experiment [1], the “T½” value came out at 0.5 min, the koff amounted to 0.023 s⁻¹ and the kon turned out to be 230000 M⁻¹ s⁻¹. For the same molecule, in experiment [2], binding was characterised by a dissociation constant (Kd) of 100 nM.

B4: h2B4-VH-hnps VL_TK (antibody, V domains shown)
VH: B1 VH with A64P
VL: B1 VL
notes: Anti-CD3; also called h2B4-hnpsTK
Regarding B4, in experiment [1], the “T½” value is 0.72 min, the koff is 0.016 s⁻¹ and the kon amounted to 390000 M⁻¹ s⁻¹. Further, the Kd in experiment [2] was determined as 41 nM.

B5: h2B4-VH-yads VL_TK (antibody, V domains shown)
VH: B1 VH with H62Y, N63A, A64D
VL: B1 VL
notes: Anti-CD3
Regarding B5, in experiment [1], the “T½” value came out at 0.79 min, the koff was determined as 0.021 s⁻¹ and the association rate constant (kon) was 240000 M⁻¹ s⁻¹. This molecule also displayed a Kd in experiment [2] of 86 nM.

B6: L3.PY/P6E01 (antibody, V domains shown)
VH: EVQLLESGGGLVQPGGSLRLSCAASGFTFGSYAMTWVRQAPGKGLEWVSAISGSGGNTFYADSVKGRFTISRDNSKNTLYLQMNSLRAEDTAVYYCARVSPIASGMDYWGQGTLVTVSS
VL: EIVLTQSPGTLSLSPGERATLSCRASQSVSSSYLAWYQQKPGQAPRLLIYGASSRATGIPDRFSGSGSGTDFTLTISRLEPEDFAVYYCQHYPYPPSFTFGQGTKVEIK
notes: IgG in the assay
On to B6, for which the “T½” value in experiment [3] was determined as 50.7 min; in experiment [4], 3.9 min; in experiment [5], 5.91 min; in experiment [6] it was 0.88 min.

B7: L1.GDF/L3.NY/H3.AL (antibody, V domains shown)
VH: B6 VH with S104A, G105L
VL: B6 VL with S30G, S31D, S32F, P93N
notes: IgG in the assay
For the molecule B7, the “T½” value came out at 2.87 min in experiment [3] and 0.5 min in experiment [4].

B8: L1.LGF/L3.NY/H3.AL (antibody, V domains shown)
VH: B6 VH with S104A, G105L
VL: B6 VL with V29L, S30G, S32F, P93N
notes: IgG in the assay
B8: the figures for the “T½” value in experiment [3] and in experiment [4] were 11.9 min and 0.8 min, respectively.

B9: L1.LGF/L3.KW/H3.AL (antibody, V domains shown)
VH: B6 VH with S104A, G105L
VL: B6 VL with V29L, S30G, S32F, Q90K, P93G, Y94W
notes: IgG in the assay
On to B9, for which the entries for the “T½” value in experiment [3] and in experiment [4] were 9.4 min and 1 min, respectively.

B10: L1.LGF/L3.NY/H3.AQ (antibody, V domains shown)
VH: B6 VH with S104A, G105Q
VL: B6 VL with V29L, S30G, S32F, P93N
notes: IgG in the assay
As for B10, the “T½” value in experiment [3] worked out at 38.6 min; in experiment [4], 7.8 min.

B11: L1.GDF/L3.NY/H3.AP (antibody, V domains shown)
VH: B6 VH with S104A, G105P
VL: B6 VL with S30G, S31D, S32F, P93N
notes: IgG in the assay
B11: the “T½” value in experiment [3] stood at 8.21 min; in experiment [4] it was 1.6 min.

B12: L1.LGF/L3.KW/P6E01 (antibody, V domains shown)
VH: B6 VH
VL: B6 VL with V29L, S30G, S32F, Q90K, P93G, Y94W
notes: IgG in the assay
On to B12, for which the “T½” value in experiment [3] amounted to 1.53 min; in experiment [4], 0.6 min.

B13: L3.NY/P6E01 (antibody, V domains shown)
VH: B6 VH
VL: B6 VL with P93N
notes: IgG in the assay
B13: the “T½” value in experiment [3] came to 30.1 min; in experiment [4], 4 min.

B14: L1.LGF/L3.NY/H3.AP (antibody, V domains shown)
VH: B6 VH with S104A, G105P
VL: B6 VL with V29L, S30G, S32F, P93N
notes: IgG in the assay
With B14, the “T½” value in experiment [3] turned out to be 21.7 min; in experiment [4] it was 2.1 min.

B15: L1.LGF/L3.KW/H3.AQ (antibody, V domains shown)
VH: B6 VH with S104A, G105Q
VL: B6 VL with V29L, S30G, S32F, Q90K, P93G, Y94W
notes: IgG in the assay
Regarding B15, the “T½” value in experiment [3] was 12.1 min; in experiment [4] it was 3.3 min.

B16: L1.LGF/L3.PY/H3.AP (antibody, V domains shown)
VH: B6 VH with S104A, G105P
VL: B6 VL with V29L, S30G, S32F
notes: IgG in the assay
Take B16: the results for the “T½” value in experiment [3] and in experiment [4] were 11.9 min and 0.9 min, respectively.

B17: L1.GDF/L3.NY/H3.AQ (antibody, V domains shown)
VH: B6 VH with S104A, G105Q
VL: B6 VL with S30G, S31D, S32F, P93N
notes: IgG in the assay
Consider B17, for which the “T½” value turned out to be 16 min in experiment [3] and 8.5 min in experiment [4].

B18: L1.GDF/L3.PY/H3.AQ (antibody, V domains shown)
VH: B6 VH with S104A, G105Q
VL: B6 VL with S30G, S31D, S32F
notes: IgG in the assay
Turning to B18, the “T½” value in experiment [3] amounted to 0.86 min; in experiment [4], 0.7 min.

B19: L1.GDF/L3.NY/P6E01 (antibody, V domains shown)
VH: B6 VH
VL: B6 VL with S30G, S31D, S32F, P93N
notes: IgG in the assay
Take B19: the “T½” value was determined as 1.95 min in experiment [3] and 1.5 min in experiment [4].

B20: L1.LGF/L3.NY/P6E01 (antibody, V domains shown)
VH: B6 VH
VL: B6 VL with V29L, S30G, S32F, P93N
notes: IgG in the assay
For B20, the “T½” value in experiment [3] stood at 2.63 min; in experiment [4] it was 1.1 min.

B21: L1.LGF/L3.PY/H3.AQ (antibody, V domains shown)
VH: B6 VH with S104A, G105Q
VL: B6 VL with V29L, S30G, S32F
notes: IgG in the assay
Consider B21, for which the “T½” value in experiment [3] was found to be 13 min; in experiment [4], 2.4 min.

B22: L3.KW/P6E01 (antibody, V domains shown)
VH: B6 VH
VL: B6 VL with Q90K, P93G, Y94W
notes: IgG in the assay
Consider B22, for which the “T½” value in experiment [3] was 36.7 min; in experiment [4], 4.5 min.

B23: L1.GDF/L3.KW/H3.AQ (antibody, V domains shown)
VH: B6 VH with S104A, G105Q
VL: B6 VL with S30G, S31D, S32F, Q90K, P93G, Y94W
notes: IgG in the assay
With B23, the “T½” value in experiment [3] was 3.32 min; in experiment [4], 2 min.

B24: L1.LGF/L3.KW/H3.AP (antibody, V domains shown)
VH: B6 VH with S104A, G105P
VL: B6 VL with V29L, S30G, S32F, Q90K, P93G, Y94W
notes: IgG in the assay
B24: the results for the “T½” value in experiment [3] and in experiment [4] were 5.1 min and 0.7 min, respectively.

B25: UCHT1 (antibody, V domains shown)
VH: EVQLQQSGPELVKPGPSMKISCKASGYSFTGYTMNWVKQSHGKNLEWMGLINPYKGVSTYNQKFKDKATLTVDKSSSTAYMELLSLTSEDSAVYYCARSGYYGDSDWYFDVWGQGTTLTVFS
VL: DIQMTQTTSSLSASLGDRVTISCRASQDIRNYLNWYQQKPDGTVKLLIYYTSRLHSGVPSKFSGSGSGTDYSLTISNLEQEDIATYFCQQGNTLPWTFAGGTKLEIKR
As to B25, in experiment [7], the Kd was less than 4.74 nM and the “t1/2” value was greater than 13.5 min.
